Experiments:
[1] = biological target: M1 muscarinic acetylcholine receptor, wild type (M1-WT), transfected in HEK293T cells (UniProt P12657)
[2] = biological target: phosphorylation-deficient M1 muscarinic acetylcholine receptor (M1-PD), transfected in HEK293T cells (UniProt P12657)

| Substance | Emax of ACh-stimulated β-arrestin-2 recruitment (bystander BRET: translocation of β-arrestin-2 to the cell membrane, HEK293T cells) [1] | Emax of ACh-stimulated β-arrestin-2 recruitment (bystander BRET: translocation of β-arrestin-2 to the cell membrane, HEK293T cells) [2] | Emax of ACh-stimulated Gq activation (BRET biosensor, decrease in BRET, HEK cells) [1] | Emax of ACh-stimulated Gq activation (BRET biosensor, decrease in BRET, HEK cells) [2] |
| --- | --- | --- | --- | --- |
| β-arrestin-2 (bystander BRET sensor in HEK293T cells) (from UniProt P32121 1-409) (natural protein) | 104 | 40.7 |  |  |
| Gq (Gαq, BRET biosensor of Gq activation in HEK cells) (from UniProt P50148 1-359) (natural protein) |  |  | 100 | 108 |
